Source: IntAct's records for PubMed 17955262

B1: Frizzled-4 (Homo sapiens), Q9ULV1 (parent)
chain: MAWRGAGPSVPGAPGGVGLSLGLLLQLLLLLGPARGFGDEEERRCDPIRISMCQNLGYNVTKMPNLVGHELQTDAELQLTTFTPLIQYGCSSQLQFFLCSVYVPMCTEKINIPIGPCGGMCLSVKRRCEPVLKEFGFAWPESLNCSKFPPQNDHNHMCMEGPGDEEVPLPHKTPIQPGEECHSVGTNSDQYIWVKRSLNCVLKCGYDAGLYSRSAKEFTDIWMAVWASLCFISTAFTVLTFLIDSSRFSYPERPIIFLSMCYNIYSIAYIVRLTVGRERISCDFEEAAEPVLIQEGLKNTGCAIIFLLMYFFGMASSIWWVILTLTWFLAAGLKWGHEAIEMHSSYFHIAAWAIPAVKTIVILIMRLVDADELTGLCYVGNQNLDALTGFVVAPLFTYLVIGTLFIAAGLVALFKIRSNLQKDGTKTDKLERLMVKIGVFSVLYTVPATCVIACYFYEISNWALFRYSADDSNMAVEMLKIFMSLLVGITSGMWIWSAKTLHTWQKCSNRLVNSGKVKREKRGNGWVKPGKGSETVV
B2: Norrin (Homo sapiens), Q00604 (parent)
chain: MRKHVLAASFSMLSLLVIMGDTDSKTDSSFIMDSDPRRCMRHHYVDSISHPLYKCSSKMVLLARCEGHCSQASRSEPLVSFSTVLKQPFRSSCHCCRPQTSKLKALRLRCSGGMRLTATYRYILSCHCEECNS

Variants of: B1
Conditions: with ndp_human NDP, Q00604

Variant	effect of a mutation on the interaction
MAWRGAGPSVPGAPGGVGLSLGLLLQLLLLLGPARGFGDEEERRCDPIRISMCQNLGYNVTKMPNLVGHELQTDAELQLTTFTPLIQYGCSSQLQFFLCSVYVPVCTEKINIPIGPCGGMCLSVKRRCEPVLKEFGFAWPESLNCSKFPPQNDHNHMCMEGPGDEEVPLPHKTPIQPGEECHSVGTNSDQYIWVKRSLNCVLKCGYDAGLYSRSAKEFTDIWMAVWASLCFISTAFTVLTFLIDSSRFSYPERPIIFLSMCYNIYSIAYIVRLTVGRERISCDFEEAAEPVLIQEGLKNTGCAIIFLLMYFFGMASSIWWVILTLTWFLAAGLKWGHEAIEMHSSYFHIAAWAIPAVKTIVILIMRLVDADELTGLCYVGNQNLDALTGFVVAPLFTYLVIGTLFIAAGLVALFKIRSNLQKDGTKTDKLERLMVKIGVFSVLYTVPATCVIACYFYEISNWALFRYSADDSNMAVEMLKIFMSLLVGITSGMWIWSAKTLHTWQKCSNRLVNSGKVKREKRGNGWVKPGKGSETVV [M105V]	decreasing interaction

Variants of: B2
Conditions: with fzd4_human FZD4, Q9ULV1

Variant	effect of a mutation on the interaction
MRKHVLAASFSMLSLLVIMGDTDSKTDSSFIMDSDPRRCMRHHYVDSISHPLYDCSSKMVLLARCEGHCSQASRSEPLVSFSTVLKQPFRSSCHCCRPQTSKLKALRLRCSGGMRLTATYRYILSCHCEECNS [K54D]	decreasing interaction
MRKHVLAASFSMLSLLVIMGDTDSKTDSSFIMDSDPRRCMRHHYVDSISHPLYKCSSKMVLLARCEGHCSQASRSEPLVSFSTVLKQPFRSSCHCCRPQTSKLKALRLRCSGGMLLTATYRYILSCHCEECNS [R115L]	decreasing interaction
